# Assay results reported in the RNAGym collection of RNA variant scans (doi:10.1021/acssynbio.7b00057).
# B1: Pistol ribozyme (parent)
# chain: GGGUCGUUGUUCCAUAAUCGCGUGGAUAUGGCACGCAAGUUUCUACCGGGCACCGUAAAUGUCCGACUGGAGCCGUUCGGGCGGCUAUAAACAGACCUCAGGCCCGAAGCGUGGCGGCACCUGCCGCCGGUGGUAAAAAAGAUCGGAAGAGCACACGUCU
# Variants of: B1
# Assay: aptazyme ON/OFF ratio, guanine; higher = stronger switching; co-transcriptional cleavage with and without guanine
row,Variant,aptazyme ON/OFF ratio
1,U7G U8C G9A U10A C12A,1.15
2,U7G U8C G9A U10A C12G,1.24
3,U7G U8C G9A U10A C12U,1.62
4,U7G U8C C12U,1.2
5,U7G U8C C12A,1.05
6,U7G U8C C12G,1.12
7,U7G U8C G9A U10C C12A C13G,1.14
8,U7G U8C G9A U10C C12A C13U,1.19
9,U7G U8C G9A U10C C12A C13A,1.12
10,U7G U8A U10C U11A C12G C13G,1.22
11,U7G U8A U10C U11A C12G C13A,1.25
12,U7G U8A U10C U11A C12G C13U,1.38
13,U7G U8C G9A U10C C13G,1.08
14,U7G U8C G9A U10C C13U,1.58
15,U7G U8C G9A U10C C13A,1.07
16,U7G U8C G9A U10C C12U,1.37
17,U7G U8C G9A U10C C12A,1.18
18,U7G U8C G9A U10C C12G,1.29
19,U7G U8C G9A U10C C12G C13A,1.12
20,U7G U8C G9A U10C C12G C13G,1.19
21,U7G U8C G9A U10C C12G C13U,1.28
22,U7G U8C G9A C12G C13U,1.03
23,U7G U8C G9A C12G C13A,1.05
24,U7G U8C G9A C12G C13G,1.04

row,Variant,aptazyme ON/OFF ratio
1,U7G U8C G9A U10A,3.78
2,U7G U8C G9A U10C,3.27
3,U7G U8C G9A U10G,3.04
4,U7G U8A U10C C13A,1.23
5,U7G U8A U10C C13U,1.49
6,U7G U8A U10C C13G,1.09
7,U7G U8A U10C U11C C12U,1.31
8,U7G U8A U10C U11C C12A,1.46
9,U7G U8A U10C U11C C12G,1.29
10,U7G U8C G9A U10A U11C C12G C13U,1.09
11,U7G U8C G9A U10A U11C C12G C13A,1.08
12,U7G U8C G9A U10A U11C C12G C13G,1.03
13,U7G U8C G9A U10C U11G C12U C13A,1.26
14,U7G U8C G9A U10C U11G C12U C13G,1.22
15,U7G U8C G9A U10C U11G C12U C13U,1.18
16,U7G U8C G9A U10C U11A C12G C13G,1.21
17,U7G U8C G9A U10C U11A C12G C13U,1.33
18,U7G U8C G9A U10C U11A C12G C13A,1.06
19,U7G U8A U10C U11A C12U,1.42
20,U7G U8A U10C U11A C12G,1.54
21,U7G U8A U10C U11A C12A,1.32
22,U7G U8C,1.32
23,U7G U8C G9A U10A U11C C12A,1.31
24,U7G U8C G9A U10A U11C C12U,1.11

row,Variant,aptazyme ON/OFF ratio
1,U7G U8C G9A U10A U11C C12G,1.13
2,U7G U8C G9A U10A U11A C12G C13G,1.13
3,U7G U8C G9A U10A U11A C12G C13U,1.15
4,U7G U8C G9A U10A U11A C12G C13A,1.13
5,U7G U8A U10C U11C C13A,1.05
6,U7G U8A U10C U11C C13U,1.01
7,U7G U8A U10C U11C C13G,1.05
8,U7G U8A U10G,1.28
9,U7G U8C G9A U10C U11G C12U,1.37
10,U7G U8C G9A U10C U11G C12A,1.07
11,U7G U8C G9A U10C U11G C12G,1.12
12,U7G U8C G9A C13G,1.03
13,U7G U8C G9A C13A,1.09
14,U7G U8C G9A C13U,1.22
15,U7G U8C G9A U10C U11C C12A C13U,1.2
16,U7G U8C G9A U10C U11C C12A C13A,1.2
17,U7G U8C G9A U10C U11C C12A C13G,1.28
18,U7G U8A U10C U11A C12A C13A,1.49
19,U7G U8A U10C U11A C12A C13G,1.23
20,U7G U8A U10C U11A C12A C13U,1.39
21,U7G U8A U11G C12A C13A,1.24
22,U7G U8A U11G C12A C13U,1.34
23,U7G U8A U11G C12A C13G,1.37
24,U7G U8A U10G U11A C12A C13A,1.47

row,Variant,aptazyme ON/OFF ratio
1,U7G U8A U10G U11A C12A C13G,1.15
2,U7G U8A U10G U11A C12A C13U,1.12
3,U7G U8C G9A U10C U11C C12G C13A,1.15
4,U7G U8C G9A U10C U11C C12G C13G,1.05
5,U7G U8C G9A U10C U11C C12G C13U,1.09
6,U7G U8C G9A U10A U11C C13A,1.1
7,U7G U8C G9A U10A U11C C13U,1.08
8,U7G U8C G9A U10A U11C C13G,1.05
9,U7G U8A U10G U11G C13G,1.43
10,U7G U8A U10G U11G C13A,1.28
11,U7G U8A U10G U11G C13U,1.42
12,U7G U8C G9A U10A U11G C13G,1.04
13,U7G U8C G9A U10A U11G C13A,1.13
14,U7G U8C G9A U10A U11G C13U,1.23
15,U7G U8A U11A C12A C13G,1.24
16,U7G U8A U11A C12A C13U,1.39
17,U7G U8A U11A C12A C13A,1.35
18,U7G U8C G9A C12A C13U,1.06
19,U7G U8C G9A C12A C13G,1.05
20,U7G U8C G9A C12A C13A,1.08
21,U7G U8C G9A U10C U11A C13A,1.18
22,U7G U8C G9A U10C U11A C13U,1.28
23,U7G U8C G9A U10C U11A C13G,1.07
24,U7G U8A U10C U11G C12G C13G,1.11

row,Variant,aptazyme ON/OFF ratio
1,U7G U8A U10C U11G C12G C13A,1.26
2,U7G U8A U10C U11G C12G C13U,1.05
3,U7G U8C G9A U10C C12U C13G,1.11
4,U7G U8C G9A U10C C12U C13A,1.15
5,U7G U8C G9A U10C C12U C13U,1.08
6,U7G U8A U10C U11G C13G,1.26
7,U7G U8A U10C U11G C13U,1.41
8,U7G U8A U10C U11G C13A,1.34
9,U7G U8C G9A U10A U11G C12G C13A,1.08
10,U7G U8C G9A U10A U11G C12G C13U,1.09
11,U7G U8C G9A U10A U11G C12G C13G,1.14
12,U7G U8C G9A U10C U11C C12U C13G,1.04
13,U7G U8C G9A U10C U11C C12U C13A,1.04
14,U7G U8C G9A U10C U11C C12U C13U,1.06
15,U7G U8A U10G C12A C13U,1.15
16,U7G U8A U10G C12A C13G,1.11
17,U7G U8A U10G C12A C13A,1.58
18,U7G U8C G9A U10A U11A C12A,1.28
19,U7G U8C G9A U10A U11A C12U,1.4
20,U7G U8C G9A U10A U11A C12G,1.22
21,U7G U8A U10C U11G C12A,1.27
22,U7G U8A U10C U11G C12U,1.32
23,U7G U8A U10C U11G C12G,1.49
24,U7G U8A U10C U11G C12U C13A,1.2

row,Variant,aptazyme ON/OFF ratio
1,U7G U8A U10C U11G C12U C13G,1.29
2,U7G U8A U10C U11G C12U C13U,1.42
3,U7G U8C G9A U10C U11G C12A C13A,1.11
4,U7G U8C G9A U10C U11G C12A C13U,1.16
5,U7G U8C G9A U10C U11G C12A C13G,1.08
6,U7G U8C G9A U10A U11G C12U C13G,1.2
7,U7G U8C G9A U10A U11G C12U C13A,1.16
8,U7G U8C G9A U10A U11G C12U C13U,1.21
9,U7G U8C G9A U10A U11C C12A C13A,1.13
10,U7G U8C G9A U10A U11C C12A C13U,1.13
11,U7G U8C G9A U10A U11C C12A C13G,1.25
12,U7G U8C G9A U10A C13G,1.06
13,U7G U8C G9A U10A C13U,1.83
14,U7G U8C G9A U10A C13A,1.19
15,U7G U8A U10G U11G C12A,1.3
16,U7G U8A U10G U11G C12G,1.5
17,U7G U8A U10G U11G C12U,1.26
18,U7G U8A U11A C12G C13G,1.18
19,U7G U8A U11A C12G C13A,1.08
20,U7G U8A U11A C12G C13U,1.21
21,U7G U8C G9A U10A U11A,3.25
22,U7G U8C G9A U10A U11C,1.11
23,U7G U8C G9A U10A U11G,1.87
24,U7G U8A U10G U11C C12A C13A,1.43

row,Variant,aptazyme ON/OFF ratio
1,U7G U8A U10G U11C C12A C13G,1.17
2,U7G U8A U10G U11C C12A C13U,1.2
3,U7G U8A U10G U11C C12G,1.02
4,U7G U8A U10G U11C C12U,1.27
5,U7G U8A U10G U11C C12A,1.48
6,U7G U8C G9A U10A U11A C12A C13A,1.21
7,U7G U8C G9A U10A U11A C12A C13G,1.12
8,U7G U8C G9A U10A U11A C12A C13U,1.17
9,U7G U8C G9A U10A U11G C12G,1.19
10,U7G U8C G9A U10A U11G C12A,1.06
11,U7G U8C G9A U10A U11G C12U,1.26
12,U7G U8A U10C U11A C13U,1.44
13,U7G U8A U10C U11A C13A,1.39
14,U7G U8A U10C U11A C13G,1.23
15,U7G U8A U10G U11G C12U C13U,1.65
16,U7G U8A U10G U11G C12U C13G,1.16
17,U7G U8A U10G U11G C12U C13A,1.44
18,U7G U8A U11C C12A C13A,1.23
19,U7G U8A U11C C12A C13U,1.46
20,U7G U8A U11C C12A C13G,1.36
21,U7G U8A U10C U11C C12G C13G,1.06
22,U7G U8A U10C U11C C12G C13U,1.3
23,U7G U8A U10C U11C C12G C13A,1.32
